Laboratory results taken from patent US20120065367A1, “Radioactively Labeled Substance” (priority 2009, published 2012).

Experiments:
[1] = test system: Human glioma cell line, U87MG cells; assay: Accumulation of radiolabeled drug in tumor and organ of tumor-bearing mice; format: in vivo, Balb/c-nu/nu mice; details: for Ratio of accumulation in tumor to that in tissue: Tumor/Blood / Ratio of accumulation in tumor to that in tissue: Tumor/Intestine / Ratio of accumulation in tumor to that in tissue: Tumor/Liver: 1 hour after administration; for Accumulated amount in tissue: Blood / Accumulated amount in tissue: Intestine / Accumulated amount in tissue: Kidney / Accumulated amount in tissue: Liver / Accumulated amount in tissue: Lung / Accumulated amount in tissue: Stomach / Accumulated amount in tissue: Tumor: 1 hour after tail vein administration
Protocol: Human glioma cell line, U87MG cells at 5×10^6 cells/mouse were administered subcutaneously in the left femur of Balb/c-nu/nu mice at 4 weeks of age. The mice bearing the tumor of 0.5 g in size were used for a body distribution experiment.
A ^99mTc-GH solution with [GH]=4.0 mg/mL was obtained by adding 750 μL (1.58 μCi) of a solution of Na[^99mTcO4] in saline eluted from a ^99Mo/^99mTc generator to a lyophilized GH kit (3.0 mg) including α-D-glucoheptonic acid and stannous chloride to perform a reaction at room temperature for 20 minutes. Further, a 2 mM ligand solution was separately prepared by dissolving D-Pen-Hx-cRGDfK (0.8 mg, […]) in 471 μL of 0.1 M Tris hydrochloride buffer (pH 9.0) purged with nitrogen. 140 μL of the ^99mTc-GH solution was added to 140 μL of the ligand solution, they were sufficiently mixed, and then subjected to a reaction at 40° C. for 40 minutes. The reaction solution was diluted to 40-fold with saline so that [Free ligand]=0.025 mM to use as the unpurified sample to be administered.
A ^99mTc-GH solution with [GH]=4.0 mg/mL was obtained by adding 500 μL (970 μCi) of a solution of Na[^99mTcO4] in saline eluted from a ^99Mo/^99mTc generator to a lyophilized GH kit (2.0 mg) including α-D-glucoheptonic acid and stannous chloride to perform a reaction at room temperature for 20 minutes. Further, a 2 mM ligand solution was separately prepared by dissolving TMEC-[N-hexanoate-c(Arg-Gly-Asp-D-Phe-Lys)]2 (hereinafter, sometimes abbreviated as TMEC-RGD2) (0.7 mg, 0.406 μmol) in 200 μL of 0.1 M acetate buffer (pH 3.5) purged with nitrogen. 200 μL of the ^99mTc-GH solution was added to 200 μL of the ligand solution, they were sufficiently mixed, and then subjected to a reaction at 80° C. for one hour. A half amount of the reaction solution (200 μL) was applied to RP-HPLC (mobile phase: A=10 mM phosphate buffer (pH 6.0), B=MeOH; gradient system: 0 to 18 minutes: B=0 to 60%, 18 to 26 minutes: B=60 to 100%, 26 to 31 minutes: B=100%), a fraction eluted at 24 minutes was collected, the organic solvent was distilled off under reduced pressure, and then the residue was diluted with 10% ethanol/saline to use as the purified sample. Further, the other half amount of the reaction solution (200 μL) was diluted to 40-fold with saline so that [Free ligand]=0.025 mM to use as the unpurified sample to be administered.
100 μL of the unpurified ^99mTC-(D-Pen-Hx-cRDGfK)2 sample (about 1.1 μCi) was administered to the tail veins of tumor-bearing Balb/c-nu/nu male mice at 10 weeks of age. There were 5 mice in one group. The mice were sacrificed by beheading 1 hour after the administration. Blood, organs of interest, and the tumor were removed, and the weight of and the radioactivity in each organ were measured.
100 μL of the purified or unpurified ^99mTc-TMEC-RGD2 sample (about 0.5 μCi) was administered to the tail veins of tumor-bearing Balb/c-nu/nu male mice at 10 weeks of age. There were 4 mice in one group. The mice were sacrificed by beheading 1 hour after the administration. Blood, organs of interest, and the tumor were removed, and the weight of and the radioactivity in each organ were measured.

[2] = Stability of 99mTc complex in buffer; format: physicochemical; details: 0.01 M phosphate buffer (pH 6.0), room temperature, after 1, 3, 6, and 24 hours
Protocol: 11. Examination of Stability
Each ^99mTc-labeled compound was purified by RP-HPLC (method 1 or method 2), and then the solvent was distilled off under reduced pressure. The residue was redissolved in 400 μL of 0.01 M phosphate buffer (pH 6.0). This solution was stored at room temperature, and after 1, 3, 6, and 24 hours, its radiochemical purity was analyzed by CAE or RP-HPLC.

[3] = design: species or system ddY-strain male mice; details: mouse
Protocol: 100 μL (about 1 μCi) of unpurified ^99mTc-(D-Pen-N-hexanoate-cRGDfK)2 or ^99mTc-(D-Pen-N-hexanoate-cRGDfK)2 purified by RP-HPLC was administered to the tail veins of ddY-strain male mice at 6 weeks of age (three mice for each group). The mice were sacrificed 10 minutes, 1, 3, and 6 hours after the administration, and blood samples were collected. The mice were anatomized, and the weight and radioactivity of each organ were measured. The radioactivity in urine and feces excreted by 6 hours after the administration was also measured.

[4] = administered after removing the excessive ligand by HPLC
[5] = administered without removing the excessive ligand

## ^99mTc-TMEC-[N-hexanoate-c(Arg-Gly-Asp-D-Phe-Lys)]2 [^99mTc-TMEC-RGD2]
[1]; [4]
  Ratio of accumulation in tumor to that in tissue: Tumor/Blood: 4.91 (1.07)
  Ratio of accumulation in tumor to that in tissue: Tumor/Intestine: 0.54 (0.10)
  Ratio of accumulation in tumor to that in tissue: Tumor/Liver: 0.65 (0.14)
  Accumulated amount in tissue: Blood: 0.72 (0.02) % injected dose/gram tissue
  Accumulated amount in tissue: Intestine: 6.70 (0.75) % injected dose/gram tissue
  Accumulated amount in tissue: Kidney: 16.68 (3.87) % injected dose/gram tissue
  Accumulated amount in tissue: Liver: 5.47 (0.41) % injected dose/gram tissue
  Accumulated amount in tissue: Lung: 2.33 (0.31) % injected dose/gram tissue
  Accumulated amount in tissue: Stomach: 1.20 (0.16) % injected dose
  Accumulated amount in tissue: Tumor: increased
[1]; administered after removing the excessive ligand by HPLC, listed as 99mTC-TMEC-RGD2
  Accumulated amount in tissue: Tumor: 3.54 (0.72) % injected dose/gram tissue
[1]; [5]
  Ratio of accumulation in tumor to that in tissue: Tumor/Blood: 3.41 (1.55)
  Ratio of accumulation in tumor to that in tissue: Tumor/Intestine: 0.37 (0.13)
  Ratio of accumulation in tumor to that in tissue: Tumor/Liver: 0.67 (0.31)
  Accumulated amount in tissue: Blood: 0.86 (0.33) % injected dose/gram tissue
  Accumulated amount in tissue: Intestine: 7.42 (1.95) % injected dose/gram tissue
  Accumulated amount in tissue: Kidney: 26.82 (8.71) % injected dose/gram tissue
  Accumulated amount in tissue: Liver: 4.57 (2.10) % injected dose/gram tissue
  Accumulated amount in tissue: Lung: 2.38 (0.57) % injected dose/gram tissue
  Accumulated amount in tissue: Stomach: 0.79 (0.30) % injected dose

## ^99mTc-(D-penicillamine)2 [^99mTc-(D-Pen)2]
[2]
  Stability in a buffer (radiochemical purity): higher stability

## ^99mTc-(D-Pen-N-hexanoate-cRGDfK)2 [^99mTc-(Pen-RGD)2]
[3]
  Stability in vivo: stable in vivo
[1]; mouse, in vivo
  Ratio accumulated in the tumor to that in each tissue, compared with purified 99mTc-TMEC-RGD2: equivalence to or higher than
